Sequences and labels used below:
B1: scFv; the commonest letter at each place (parent)
chain 1: EVKLDETGGGLVQPGRPMKLSCVASGFTFSDYWMNWVRQSPEKGLEWVAQIRNKPYNYETYYSDSVKGRFTISRDDSKSSVYLQMNNLRVEDMGIYYCTGSYYGMDYWGQGTSVTVS
chain 2: DVVMTQTPLSLPVSLGDQASISCRSSQSLVHSNGNTYLRWYLQKPGQSPKVLIYKVSNRFSGVPDRFSGSGSGTDFTLKISRVEAEDLGVYFCSQSTHVPWTFGGGTKLEIK

The variants in the data set “fluorescein” derive from B1. Put plainly: Kd (Tite-Seq). The note with it: with fluorescein; format: scFv 4-4-20, heavy + light.
In data set [1] the parent is B1. The data set is described as follows: yeast surface expression (ratio to wild type); higher = more expressed. The note with it: format: scFv 4-4-20, heavy + light.

For the variant chain 1 EVKLDETGGGLVQPGRPMKLSCVASGFTFSDYWMNWVRQSPEKGLEWVAQIRNKPYNYETYYSDSVKGRFTISRDDSKSSVYLQMNNLRVEDMGIYYCTGSYYGMDSDGQGTSVTVS chain 2 DVVMTQTPLSLPVSLGDQASISCRSSQSLVHSNGNTYLRWYLQKPGQSPKVLIYKVSNRFSGVPDRFSGSGSGTDFTLKISRVEAEDLGVYFCSQSTHVPWTFGGGTKLEIK [chain 1 Y107S W108D], the Kd with fluorescein was not below 10 µM. The yeast surface expression in data set [1] is 0.322.

For chain 1 EVKLDETGGGLVQPGRPMKLSCVASGFTFSDYWMNWVRQSPEKGLEWVAQIRNKPYNYETYYSDSVKGRFTISRDDSKSSVYLQMNNLRVEDMGIYYCTASYYLMMYWGQGTSVTVS chain 2 DVVMTQTPLSLPVSLGDQASISCRSSQSLVHSNGNTYLRWYLQKPGQSPKVLIYKVSNRFSGVPDRFSGSGSGTDFTLKISRVEAEDLGVYFCSQSTHVPWTFGGGTKLEIK [chain 1 G100A G104L D106M], the Kd with fluorescein was not below 10 µM. Further, the yeast surface expression in data set [1] was found to be 0.244.

For the variant chain 1 EVKLDETGGGLVQPGRPMKLSCVASGFTFSDYQMYWVRQSPEKGLEWVAQIRNKPYNYETYYSDSVKGRFTISRDDSKSSVYLQMNNLRVEDMGIYYCTGSYYGMDYWGQGTSVTVS chain 2 DVVMTQTPLSLPVSLGDQASISCRSSQSLVHSNGNTYLRWYLQKPGQSPKVLIYKVSNRFSGVPDRFSGSGSGTDFTLKISRVEAEDLGVYFCSQSTHVPWTFGGGTKLEIK [chain 1 W33Q N35Y], the dissociation constant (Kd) in the data set with fluorescein is not below 10 µM. Further, the yeast surface expression in data set [1] is 0.315.

With chain 1 EVKLDETGGGLVQPGRPMKLSCVASGFTFSDYWMNWVRQSPEKGLEWVAQIRNKPYNYETYYSDSVKGRFTISRDDSKSSVYLQMNNLRVEDMGIYYCTGSYYGMSYWGQGTSVTVS chain 2 DVVMTQTPLSLPVSLGDQASISCRSSQSLVHSNGNTYLRWYLQKPGQSPKVLIYKVSNRFSGVPDRFSGSGSGTDFTLKISRVEAEDLGVYFCSQSTHVPWTFGGGTKLEIK [chain 1 D106S], the Kd with fluorescein was found to be 0.00279 µM. Besides, the yeast surface expression in data set [1] came to 1.16.

Take chain 1 EVKLDETGGGLVQPGRPMKLSCVASGFTFSDYWMNWVRQSPEKGLEWVAQIRNKPYNYETYYSDSVKGRFTISRDDSKSSVYLQMNNLRVEDMGIYYCTGSYYGMVYWGQGTSVTVS chain 2 DVVMTQTPLSLPVSLGDQASISCRSSQSLVHSNGNTYLRWYLQKPGQSPKVLIYKVSNRFSGVPDRFSGSGSGTDFTLKISRVEAEDLGVYFCSQSTHVPWTFGGGTKLEIK [chain 1 D106V]: in the data set with fluorescein, the Kd was not below 10 µM. The yeast surface expression in data set [1] is 0.734.

As for chain 1 EVKLDETGGGLVQPGRPMKLSCVASGFTFSDYWMNWVRQSPEKGLEWVAQIRNKPYNYETYYSDSVKGRFTISRDDSKSSVYLQMNNLRVEDMGIYYCTGSYLGMDDWGQGTSVTVS chain 2 DVVMTQTPLSLPVSLGDQASISCRSSQSLVHSNGNTYLRWYLQKPGQSPKVLIYKVSNRFSGVPDRFSGSGSGTDFTLKISRVEAEDLGVYFCSQSTHVPWTFGGGTKLEIK [chain 1 Y103L Y107D], the Kd with fluorescein was not below 10 µM. The yeast surface expression in data set [1] was determined as 0.471.

chain 1 EVKLDETGGGLVQPGRPMKLSCVASGFTFSDYCGEWVRQSPEKGLEWVAQIRNKPYNYETYYSDSVKGRFTISRDDSKSSVYLQMNNLRVEDMGIYYCTGSYYGMDYWGQGTSVTVS chain 2 DVVMTQTPLSLPVSLGDQASISCRSSQSLVHSNGNTYLRWYLQKPGQSPKVLIYKVSNRFSGVPDRFSGSGSGTDFTLKISRVEAEDLGVYFCSQSTHVPWTFGGGTKLEIK [chain 1 W33C M34G N35E]: the Kd with fluorescein is not below 10 µM. Moreover, the yeast surface expression in data set [1] was found to be 1.65.

Turning to chain 1 EVKLDETGGGLVQPGRPMKLSCVASGFTFSDYWMNWVRQSPEKGLEWVAQIRNKPYNYETYYSDSVKGRFTISRDDSKSSVYLQMNNLRVEDMGIYYCTGTYQGMDYWGQGTSVTVS chain 2 DVVMTQTPLSLPVSLGDQASISCRSSQSLVHSNGNTYLRWYLQKPGQSPKVLIYKVSNRFSGVPDRFSGSGSGTDFTLKISRVEAEDLGVYFCSQSTHVPWTFGGGTKLEIK [chain 1 S101T Y103Q], the equilibrium dissociation constant (Kd) with fluorescein is not below 10 µM. In data set [1], the yeast surface expression came to 1.11.

With chain 1 EVKLDETGGGLVQPGRPMKLSCVASGFTFSDIWMNWVRQSPEKGLEWVAQIRNKPYNYETYYSDSVKGRFTISRDDSKSSVYLQMNNLRVEDMGIYYCTGSYYGMDYWGQGTSVTVS chain 2 DVVMTQTPLSLPVSLGDQASISCRSSQSLVHSNGNTYLRWYLQKPGQSPKVLIYKVSNRFSGVPDRFSGSGSGTDFTLKISRVEAEDLGVYFCSQSTHVPWTFGGGTKLEIK [chain 1 Y32I], the equilibrium dissociation constant (Kd) with fluorescein is not below 10 µM. For the same variant, the yeast surface expression in data set [1] stood at 0.938.

Take chain 1 EVKLDETGGGLVQPGRPMKLSCVASGFTFSDYWMNWVRQSPEKGLEWVAQIRNKPYNYETYYSDSVKGRFTISRDDSKSSVYLQMNNLRVEDMGIYYCTGSYYGDDDWGQGTSVTVS chain 2 DVVMTQTPLSLPVSLGDQASISCRSSQSLVHSNGNTYLRWYLQKPGQSPKVLIYKVSNRFSGVPDRFSGSGSGTDFTLKISRVEAEDLGVYFCSQSTHVPWTFGGGTKLEIK [chain 1 M105D Y107D]: the Kd with fluorescein was not below 10 µM. Further, the yeast surface expression in data set [1] stood at 0.442.

For the variant chain 1 EVKLDETGGGLVQPGRPMKLSCVASGFTFSTYNMNWVRQSPEKGLEWVAQIRNKPYNYETYYSDSVKGRFTISRDDSKSSVYLQMNNLRVEDMGIYYCTGSYYGMDYWGQGTSVTVS chain 2 DVVMTQTPLSLPVSLGDQASISCRSSQSLVHSNGNTYLRWYLQKPGQSPKVLIYKVSNRFSGVPDRFSGSGSGTDFTLKISRVEAEDLGVYFCSQSTHVPWTFGGGTKLEIK [chain 1 D31T W33N], the Kd with fluorescein is not below 10 µM. Moreover, the yeast surface expression in data set [1] stood at 0.661.

Take chain 1 EVKLDETGGGLVQPGRPMKLSCVASGFTFSDYWMNWVRQSPEKGLEWVAQIRNKPYNYETYYSDSVKGRFTISRDDSKSSVYLQMNNLRVEDMGIYYCTGSYYGMDYKLQGTSVTVS chain 2 DVVMTQTPLSLPVSLGDQASISCRSSQSLVHSNGNTYLRWYLQKPGQSPKVLIYKVSNRFSGVPDRFSGSGSGTDFTLKISRVEAEDLGVYFCSQSTHVPWTFGGGTKLEIK [chain 1 W108K G109L]: the Kd with fluorescein was not below 10 µM. Besides, in data set [1], the yeast surface expression turned out to be 0.219.

The Kd is a measure of binding affinity in units of concentration.

These data come from the FLAb antibody collection (doi:10.7554/elife.23156).
